Molecular target: HIV-1 Integrase (IN) from NL4-3, Flag-tagged (HIV-1 NL4-3)
Experiment: AlphaScreen or HTRF; HTRF-based IN-IN multimerization assay with Flag-tagged and His-tagged IN from NL4-3; with the small molecule MUT-A, signal compared to the IN-IN signal without MUT-A

Question: For “HIV-1 Integrase (IN) from NL4-3, Flag-tagged (enzyme)”, which maximum multimerization signal plateau with MUT-A (percent of the IN-IN signal without MUT-A) is on record?
Answer: 600%
